Experimental data: paper PMC6396024, “Artemin and an Artemin-Derived Peptide, Artefin, Induce Neuronal Survival, and Differentiation Through Ret and NCAM” (Frontiers in Molecular Neuroscience, 2019)
Bridge positions count the residues as written; N and C are the ends. Ends that are not written are not given here. I, II: the chains in the order shown.

T1: recombinant human GFRα3/Fc (human, UniProt O60609 32-374)
T1 construct: GDNF family receptor alpha-3 (GFRα3), human; Commercial Fc chimera; also called GFL receptor α3; source: bought: R&D Systems
T1 sequence (looked up): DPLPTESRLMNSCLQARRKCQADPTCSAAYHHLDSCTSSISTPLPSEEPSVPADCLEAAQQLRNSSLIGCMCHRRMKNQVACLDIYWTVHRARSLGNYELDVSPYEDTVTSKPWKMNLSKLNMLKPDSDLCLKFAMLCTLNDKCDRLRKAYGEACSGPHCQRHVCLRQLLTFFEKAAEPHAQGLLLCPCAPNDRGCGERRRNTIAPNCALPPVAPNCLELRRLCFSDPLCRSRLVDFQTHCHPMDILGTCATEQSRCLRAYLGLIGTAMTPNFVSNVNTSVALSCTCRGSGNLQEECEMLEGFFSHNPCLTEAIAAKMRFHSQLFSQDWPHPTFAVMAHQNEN

B1: recombinant human Artemin (ARTN) (ligand, UniProt Q5T4W7 108-220, looked up)
chain: AGGPGSRARAAGARGCRLRSQLVPVRALGLGHRSDELVRFRFCSGSCRRARSPHDLSLASLLGAGALRPPPGSRPVSQPCCRPTRYEAVSFMDVNSTWRTVDRLSATACGCLG
notes: Artemin (ARTN), human, UniProt D3DPX9; source: bought: R&D Systems

Key:
[1] = test system: GFRα2; test: SPR binding to immobilized GFRα2/Fc; settings: artefin 15.6 μM
[2] = test system: GFRα1; test: SPR binding to immobilized GFRα1/Fc; settings: artefin 15.6 μM
[3] = Circular dichroism spectroscopy; type: physicochemical; settings: 10 μM, 10 mM NaH2PO4 pH 7.0, room temperature, tetrameric peptide
Method: Circular dichroism (CD) spectra were measured over the range 190–250 nm using a Jasco J-810 spectropolarimeter in cells with path length 1 mm at room temperature. The peptide was dissolved in 10 mM NaH2PO4 buffer, pH 7.0, to the final concentration 10 μM. Data were recorded at a scan speed of 20 nm/min with 10 repeat scans accumulated to obtain the final average spectra. Following the buffer subtraction, the observed ellipticity θ (mdeg) was converted to mean residue ellipticity [θ] (deg cm^2/dmol) using the following relationship [θ] = 100θ /(lcn) where ‘l’ is path length in centimeters, ‘c’ is the millimolar concentration, and ‘n’ is the number of residues in the peptide.

[4] = test system: mice; settings: intracerebroventricular, ref Mannelli et al., 2011; cited from earlier work
Description: (§1) Artemin (ARTN) is a member of the glial cell line-derived neurotrophic factor family ligands (GFLs) which includes three other members: glial cell line-derived neurotrophic factor (GDNF), neurturin (NRTN), and persephin (PSPN) ([Baloh et al., 1998b]; [Airaksinen and Saarma, 2002]). GFLs affect the generation, survival, and growth of neurons in different CNS neuronal populations, including midbrain dopaminergic neurons, central motor neurons, and noradrenergic neurons ([Airaksinen and Saarma, 2002]). Similar to GDNF, ARTN is a potential neuroprotective agent as it promotes the survival of dopam ...

[5] = test system: dopaminergic neurons; settings: in vitro; ref Rosenblad et al., 2000; Sariola and Saarma, 2003; cited from earlier work
Description: as §1

[6] = test system: GFRα1; parameters: method as in Scott and Ibañéz, 2001; settings: previously shown; ref Scott and Ibañéz, 2001; cited from earlier work
[7] = test system: patients with lumbosacral radiculopathy; settings: intravenous, Phase 2; particularly at the lowest dose; ref Backonja et al., 2017; cited from earlier work
Description: (§2) Results from Phase 1 clinical trials ([Rolan et al., 2015]; [Okkerse et al., 2016]) further support the application of ARTN for treatment of peripheral nerve injury and attenuation of neuropathic pain. A recent Phase 2 trial (SPRINT) that evaluated the sa ...

[8] = test system: surgically and chemically induced nerve injury models; settings: systemic treatment; ref Gardell et al., 2003; Bennett et al., 2006; Wang et al., 2008; Wong et al., 2015; cited from earlier work
Description: as §2

[9] = test system: GFRα2; parameters: method as in Scott and Ibañéz, 2001; settings: previously shown; ref Scott and Ibañéz, 2001; cited from earlier work
[10] = target: T2, recombinant rat NCAM Ig1–3 (rat, UniProt P13596 20-308); test: SPR; Biacore 2000, 25°C, HBS-EP (10 mM HEPES pH 7.4, 150 mM NaCl, 3 mM EDTA, 0.005% P20); ARTN (~2300 RU) or artefin (~1600 RU) amine-coupled on a CM4 chip; serially diluted GFRα3/Fc or NCAM Ig1–3 injected at 20 μl/min; 1:1 interaction model or steady-state affinity analysis; settings: both partners purified
T2 construct: neural cell adhesion molecule (NCAM), rat, Ig1–3 domains; also called NCAM Ig1–3 domain; source: recombinant, produced as described previously (Soroka et al., 2003)
T2 sequence (P13596 20-308): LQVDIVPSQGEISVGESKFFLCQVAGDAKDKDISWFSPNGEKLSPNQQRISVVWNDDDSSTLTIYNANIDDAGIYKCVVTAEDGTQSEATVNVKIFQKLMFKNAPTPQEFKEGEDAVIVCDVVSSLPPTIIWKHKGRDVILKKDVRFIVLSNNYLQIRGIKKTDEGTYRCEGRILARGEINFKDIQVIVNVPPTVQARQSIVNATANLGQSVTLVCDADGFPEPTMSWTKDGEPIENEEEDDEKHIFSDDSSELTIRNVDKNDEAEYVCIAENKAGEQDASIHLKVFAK

[11] = target: T1, recombinant human GFRα3/Fc; test: as above; settings: both partners purified

| Molecule | binding to GFRα2 [1] | binding to GFRα1 [2] | far-UV CD bands ([3]; 190–250 nm) | secondary structure in solution (far-UV CD) [3] | antidepressant effects [4] | survival of dopaminergic neurons [5] | interaction with GFRα1 [6] | reducing pain in patients with lumbosacral radiculopathy [7] | effect on behavioral symptoms of neuropathic pain [8] | interaction with GFRα2 [9] | Kd [10] [µM] | Kd [11] [µM] |
| --- | --- | --- | --- | --- | --- | --- | --- | --- | --- | --- | --- | --- |
| I: RSPHDLSLASLLGAGKK-NH2 / II: RSPHDLSLASLLGAGK / III: RSPHDLSLASLLGAG / IV: RSPHDLSLASLLGAG (amide I:16-IV:C, I:17-II:C, II:16-III:C; C-terminus assumed) [artefin] | binds to GFRα1 and GFRα2 | binds to GFRα1 | negative band at 208 nm, a shoulder at 222 nm, and a positive band at 193 nm | a-helix confirmation is dominant | – | – | – | – | – | – | – | – |
| B1 | – | – | – | – | dose-dependent antidepressant effects | promotes the survival of dopaminergic neurons in vitro | previously been shown to interact with GFRα1 | showed evidence of pain relief | mitigates behavioral symptoms associated with neuropathic pain | previously been shown to interact with GFRα1and GFRα2 | 13 | 0.0027 |
